B1: AP-Nogo66-His, wild type (alkaline phosphatase fusion of the NOGO66 domain of reticulon-4) [human] / RTNR-FLAG-His (Nogo66 receptor) on HEK293T cells [not stated] (parent)
chain 1: RIYKGVIQAIQKSDEGHPFRAYLESEVAISEELVQKYSNSALGHVNCTIKELRRLFLVDDLVDSLK
chain 2: CPGACVCYNEPKVTTSCPQQGLQAVPVGIPAASQRIFLHGNRISHVPAASFRACRNLTILWLHSNVLARIDAAAFTGLALLEQLDLSDNAQLRSVDPATFHGLGRLHTLHLDRCGLQELGPGLFRGLAALQYLYLQDNALQALPDDTFRDLGNLTHLFLHGNRISSVPERAFRGLHSLDRLLLHQNRVAHVHPHAFRDLGRLMTLYLFANNLSALPTEALAPLRALQYLRLNDNPWVCDCRARPLWAWLQKFRGSSSEVPCSLPQRLAGRDLKRLAANDLQGCAVATGPYHPIWTGRATDEEPLGLPKCCQPDAADKASVLEPGRPASAGNALKGRVPPGDSPPGNGSGPRHINDSPFGTLPGSAEPPLTAVRPEGSEPPGFPTSGPRRRPGCSRKNRTRSHCRLGQAGSGGGGTGDSEGS

Variants of: B1
Experiment: AP (alkaline phosphatase fusion) receptor binding assay on HEK293T cells overexpressing RTNR
Settings: with RTNR-FLAG-His (Nogo66 receptor) on HEK293T cells; RTNR OE HEK293T cells; n = 3 biological replicates, mean ± s.d.; parent: 0.00087; read off a plot

Row | response (min^-1 (absorbance/time)) | Variant
1 | 0.0015 | chain 1 RIYKGVIQAIQKSDEGHPFRAYLESEVAISEELVQKYSNSALGHVNWTIKELRRLFLVDDLVDSLK

From paper PMC13423832
